Usually Kd stands for the concentration at which binding is half-saturated.

16 molecules from US20110144187, “APTAMER INHIBITION OF THROMBUS FORMATION” (published 2011) can be followed below.

Substitutions are numbered along the chain they refer to.

The subject of data set [1] is fibrinogen (Homo sapiens), P02671-2+P02675+P02679-2. The experiment in a line: filter. To be noted: quinoline-8-boronic acid-modified T (B-TTP) replacing T outside the primer region; average Kd of DNA pool after round 13.
The target of data set [2] is T1, periodate-treated fibrinogen (Homo sapiens, UniProt P02671-2;P02675;P02679-2 P02671-2:20-629,P02675:31-491,P02679-2:27-437). The experiment in a line: filter; equilibrium filtration. Conditions: tags: Sigma-Aldrich fibrinogen, glycans oxidised with sodium periodate, chain copies: 2. Here is the method:
(§1) Dissociation constants in solution were determined by equilibrium filtration (Jenison et al., Science 1994, 263, 1425-1429; Huang & Szostak, RNA 2003, 9: 1456-1463;). Using this technique, the bound and unbound ligand (DNA) partition between the two portions were separated by a membrane. DNA was first amplified into dsDNA using two primers by PCR (25 cycles of 0.5 min at 94° C., 0.5 min at 46° C., and 0.5 min at 72° C., followed by 5 min at 72° C.). The dsDNA product was then split into ssDNA using one primer and α-³²P-dATP by one-round PCR. The ³²P-labeled ssDNA ligand (10 nM) and the protein (1-1000 nM) in the 100 μL of binding buffer were incubated for 15 min at 25° C. prior to loading into the Microcon YM-100 unit (Millipore, Billerica, Mass.). The solution was centrifuged at 13,000 g for 10 sec to saturate the membrane, and the filtrate was transferred back to the unit. The solution was centrifuged for another 20 sec, and the filtrate (about 10 μL) was collected. Aliquots (10 μL) were taken from both the remaining solution and the filtrate, and radioactivity in each aliquot was determined by Beckman LS 6500 liquid scintillation counter. All binding assays were duplicated. The equilibrium dissociation constants (Kd) of the ligand-protein interaction were obtained by fitting the dependence of bound fractions of specific binding on the concentration of the aptamers to the equation Y=B max X/(Kd+X), using the SigmaPlot program.
(§2) To determine the extent to which the aptamers 85A (SEQ ID NO.: 13), 85B (SEQ ID NO.: 14), and 85C (SEQ ID NO.: 15) bind specifically to fibrinogen, their dissociation constants (Kd) were measured using the equilibrium filtration method with radiolabeled α-³²P-dATP. The target substrate to which the aptamer was binding was fibrinogen (FIG. 12A), deglycosylated fibrinogen (FIG. 12B) and periodated fibrinogen (FIG. 12C).

In data set [3] the target is T2, deglycosylated fibrinogen (TFMS-treated) (Homo sapiens, UniProt P02671-2;P02675;P02679-2 P02671-2:20-629,P02675:31-491,P02679-2:27-437). The experiment in a line: filter; equilibrium filtration. To be noted: tags: Sigma-Aldrich fibrinogen, chemically deglycosylated with trifluoromethanesulfonic acid, chain copies: 2. Here is the method: as §1, §2
Data set [4] concerns the target T3, fibrinogen (Homo sapiens, UniProt P02671-2;P02675;P02679-2 P02671-2:20-629,P02675:31-491,P02679-2:27-437). Briefly: filter; equilibrium filtration; Table 1 prints a different (93, possibly truncated) value. To be noted: tags: Sigma-Aldrich, from human plasma, about 60% protein; chain copies: 2; label: 32P (alpha-32P-dATP). As to the method: as §1, with “The solution was centrifuged for another 20 sec, and the filtrate (about 10 μL) was collected.” left out, “All binding assays were duplicated. The equilibrium dissociation constants (Kd) of the ligand-protein interaction were obtained by fitting the dependence of bound fractions of specific binding on the concentration of the aptamers to the equation Y=B max X/(Kd+X), using the SigmaPlot program.” left out
(§3) To determine the extent to which the aptamers 85A (SEQ ID NO.: 13), 85B (SEQ ID NO.: 14), and 85C (SEQ ID NO.: 15) bind specifically to fibrinogen, their dissociation constants (Kd) were measured using the equilibrium filtration method with radiolabeled α-³²P-dATP. […]

Data set [5] concerns the target T3, fibrinogen. Briefly: filter; equilibrium filtration; Tables 3 and 4 give 102 ± 40. To be noted: tags: Sigma-Aldrich, from human plasma, about 60% protein; chain copies: 2; label: 32P (alpha-32P-dATP). As to the method:
as §1, with “The solution was centrifuged for another 20 sec, and the filtrate (about 10 μL) was collected.” left out, “All binding assays were duplicated. The equilibrium dissociation constants (Kd) of the ligand-protein interaction were obtained by fitting the dependence of bound fractions of specific binding on the concentration of the aptamers to the equation Y=B max X/(Kd+X), using the SigmaPlot program.” left out
as §3

In data set [6] the target is T1, periodate-treated fibrinogen. The experiment in a line: filter; equilibrium filtration; value as printed. Conditions: tags: Sigma-Aldrich fibrinogen, glycans oxidised with sodium periodate; chain copies: 2; label: 32P (alpha-32P-dATP). Here is the method:
as §1, with “The solution was centrifuged for another 20 sec, and the filtrate (about 10 μL) was collected.” left out, “All binding assays were duplicated. The equilibrium dissociation constants (Kd) of the ligand-protein interaction were obtained by fitting the dependence of bound fractions of specific binding on the concentration of the aptamers to the equation Y=B max X/(Kd+X), using the SigmaPlot program.” left out
as §3

The target in data set [7] is T2, deglycosylated fibrinogen (TFMS-treated). The experiment in a line: filter; equilibrium filtration; value as printed. To be noted: tags: Sigma-Aldrich fibrinogen, chemically deglycosylated with trifluoromethanesulfonic acid; chain copies: 2; label: 32P (alpha-32P-dATP). Here is the method:
as §1, with “The solution was centrifuged for another 20 sec, and the filtrate (about 10 μL) was collected.” left out, “All binding assays were duplicated. The equilibrium dissociation constants (Kd) of the ligand-protein interaction were obtained by fitting the dependence of bound fractions of specific binding on the concentration of the aptamers to the equation Y=B max X/(Kd+X), using the SigmaPlot program.” left out
as §3

In data set [8] the target is T3, fibrinogen. Briefly: filter; equilibrium filtration. Conditions: tags: Sigma-Aldrich, from human plasma, about 60% protein; chain copies: 2; label: 32P (alpha-32P-dATP). Here is the method: as §1, §2
The target in data set [9] is T3, fibrinogen. The experiment in a line: filter; equilibrium filtration; peroxide-treated aptamer. To be noted: tags: Sigma-Aldrich, from human plasma, about 60% protein; chain copies: 2; label: 32P (alpha-32P-dATP).
In data set [10] the target is T3, fibrinogen. The experiment in a line: SPR; biotin-aptamer on streptavidin chip. To be noted: tags: Sigma-Aldrich, from human plasma, about 60% protein, chain copies: 2. As to the method: 0.2 M EDC and 0.05 M NHS were mixed in water. After degassing, 500 μL of this EDC-NHS solution was infused into both channels on the chip over a period of about 10 min (twice). Then a 1 mg/mL streptavidin stock solution was diluted 10-fold with 20 mM sodium acetate buffer at pH 5.2. The streptavidin solution (500 μL) was infused into both the detection and control channels over about 10 min period. […] 1M ethanolamine HCl solution (500 μL) (pH 8.5) was infused in over a period of 3 min to cap un-reacted (and activated) carboxyl sites. Then biotin-labeled aptamer (B-TTP or d-TTP) solution (500 μL, in PBS/T) was infused into the detection channel only over a period of about 10 min (twice). After aptamer immobilization, different fibrinogen concentrations were used in binding studies. In each run, fibrinogen solution was infused in at a flow rate of 0.05 mL/min for 6 min. After each injection, 1M ethanolamine HCl (pH 8.5) solution was infused in as the regeneration solution. All experiments were duplicated.
The KD values were obtained for aptamer 85B (SEQ ID NO.: 14) and its mutational analogs by using a surface plasmon resonance (SPR) instrument. SPR is a method to detect the index of the refraction of surface bound layers, as described by Karlsson et al., (2000) J. Anal. Biochem. 278: 1-13, and Shimomura et al., (2001) Anal. Chim. Acta. 434: 223-230 both of which are incorporated herein by reference in their entireties). This method has been used to determine the kinetic on and off rates for the interactions between biomolecules and binding receptors. In the aptamer-fibrinogen binding studies, streptavidin was immobilized to chips coated with a SAM surface that has terminal carboxyl functional groups. Biotin-labeled DNA was subsequently immobilized on the chip through biotin-streptavidin interactions. Fibrinogen solutions of various concentrations were then used for binding constant determination using kinetic data, as described by Lin et al., (2007). […] Opin. Biotechnol. 8: 498-502; Myszka, D. G. (2000) Methods Enzymol. 323: 325-340; and Myszka & Rich (2000) Pharm. Sci. Technology Today 3: 310-317. Table 6 lists the KD values of 85B and its mutations.
For orientation: Surface plasmon resonance follows binding to a sensor surface in real time, without labels.

The target in data set [11] is T3, fibrinogen. Briefly: filter; equilibrium filtration, same buffer. To be noted: tags: Sigma-Aldrich, from human plasma, about 60% protein; chain copies: 2; label: 32P (filtration) or 5'-biotin (SPR). As to the method:
as §1, with “The solution was centrifuged for another 20 sec, and the filtrate (about 10 μL) was collected.” left out, “All binding assays were duplicated. The equilibrium dissociation constants (Kd) of the ligand-protein interaction were obtained by fitting the dependence of bound fractions of specific binding on the concentration of the aptamers to the equation Y=B max X/(Kd+X), using the SigmaPlot program.” left out
as §3

[12] abbreviates: label: 32P (filtration) or 5'-biotin (SPR).

T3 sequence (P02671 20-629, chain 1 of 3): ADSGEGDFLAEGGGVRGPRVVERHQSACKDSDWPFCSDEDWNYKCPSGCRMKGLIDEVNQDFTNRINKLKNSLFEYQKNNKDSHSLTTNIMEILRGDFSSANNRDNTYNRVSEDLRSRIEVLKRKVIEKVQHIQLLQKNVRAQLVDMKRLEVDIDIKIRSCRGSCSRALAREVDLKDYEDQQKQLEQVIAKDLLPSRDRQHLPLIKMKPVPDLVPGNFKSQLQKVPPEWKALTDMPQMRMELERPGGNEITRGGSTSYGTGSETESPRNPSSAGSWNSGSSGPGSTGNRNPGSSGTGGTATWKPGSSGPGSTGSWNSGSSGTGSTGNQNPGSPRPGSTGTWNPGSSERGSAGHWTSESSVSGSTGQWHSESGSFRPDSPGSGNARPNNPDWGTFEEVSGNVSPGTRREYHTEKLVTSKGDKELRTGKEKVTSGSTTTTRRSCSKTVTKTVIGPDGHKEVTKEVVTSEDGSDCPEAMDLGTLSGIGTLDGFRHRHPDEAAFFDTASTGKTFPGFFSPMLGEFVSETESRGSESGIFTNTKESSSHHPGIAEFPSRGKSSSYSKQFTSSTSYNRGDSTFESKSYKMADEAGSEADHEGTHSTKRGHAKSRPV
T3 sequence (P02675 31-491, chain 2 of 3): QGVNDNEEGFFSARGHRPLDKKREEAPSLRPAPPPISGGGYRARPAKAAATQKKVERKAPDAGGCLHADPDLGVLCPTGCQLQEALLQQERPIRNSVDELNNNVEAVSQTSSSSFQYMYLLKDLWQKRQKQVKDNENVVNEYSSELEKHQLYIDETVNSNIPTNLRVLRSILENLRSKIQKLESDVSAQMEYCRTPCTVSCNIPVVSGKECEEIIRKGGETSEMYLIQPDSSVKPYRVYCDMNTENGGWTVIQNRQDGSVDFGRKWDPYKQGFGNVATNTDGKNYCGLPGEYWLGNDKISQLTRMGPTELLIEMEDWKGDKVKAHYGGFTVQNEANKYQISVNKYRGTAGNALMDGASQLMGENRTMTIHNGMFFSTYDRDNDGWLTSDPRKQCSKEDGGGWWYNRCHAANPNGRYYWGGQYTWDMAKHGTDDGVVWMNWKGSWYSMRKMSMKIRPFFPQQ
T3 sequence (P02679 other isoform, or with tags, fused parts or gaps, chain 3 of 3): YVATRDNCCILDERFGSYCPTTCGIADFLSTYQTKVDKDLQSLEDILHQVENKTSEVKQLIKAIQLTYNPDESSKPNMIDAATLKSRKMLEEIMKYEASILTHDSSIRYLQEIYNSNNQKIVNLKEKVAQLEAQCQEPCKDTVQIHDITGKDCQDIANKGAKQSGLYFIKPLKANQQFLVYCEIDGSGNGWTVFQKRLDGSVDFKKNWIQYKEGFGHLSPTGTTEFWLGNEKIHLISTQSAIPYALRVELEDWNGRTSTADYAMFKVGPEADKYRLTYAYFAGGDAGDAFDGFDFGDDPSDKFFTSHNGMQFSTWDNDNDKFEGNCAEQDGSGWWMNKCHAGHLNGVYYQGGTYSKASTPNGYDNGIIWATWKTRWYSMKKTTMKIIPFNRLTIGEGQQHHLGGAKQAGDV
T2 sequence (P02671 20-629, chain 1 of 3): as the sequence (P02671 20-629, chain 1 of 3) above
T2 sequence (P02675 31-491, chain 2 of 3): as the sequence (P02675 31-491, chain 2 of 3) above
T2 sequence (P02679 other isoform, or with tags, fused parts or gaps, chain 3 of 3): as the sequence (P02679 other isoform, or with tags, fused parts or gaps, chain 3 of 3) above
T1 sequence (P02671 20-629, chain 1 of 3): as the sequence (P02671 20-629, chain 1 of 3) above
T1 sequence (P02675 31-491, chain 2 of 3): as the sequence (P02675 31-491, chain 2 of 3) above
T1 sequence (P02679 other isoform, or with tags, fused parts or gaps, chain 3 of 3): as the sequence (P02679 other isoform, or with tags, fused parts or gaps, chain 3 of 3) above
Chain of fibrinogen (Homo sapiens), P02671-2+P02675+P02679-2 (P02671 20-629, chain 1 of 3): as the sequence (P02671 20-629, chain 1 of 3) above
Chain of fibrinogen (Homo sapiens), P02671-2+P02675+P02679-2 (P02675 31-491, chain 2 of 3): as the sequence (P02675 31-491, chain 2 of 3) above
Chain of fibrinogen (Homo sapiens), P02671-2+P02675+P02679-2 (P02679 other isoform, or with tags, fused parts or gaps, chain 3 of 3): as the sequence (P02679 other isoform, or with tags, fused parts or gaps, chain 3 of 3) above

Turning to “CCTTCGTTGTCTGCCTTCGTNNNNNNNNNNNNNNNNNNNNNNNNNNNNNNNNNNNNNNNNNNNNNNNNNNACCCTTCAGAATTCGCACCA [round 13 SELEX pool B-TTP]”, the Kd in [1] was 5 µM.

B1: 85C TTP (ssDNA)
DNA: CCTTCGTTGTCTGCCTTCGTAGTCGACTCTGACGCATGGACGTATCCTGTGCGTATGCATTATGAAGCACACCCTTCAGAATTCGCACCA
modifications: none (natural T)
Consider B1, for which the Kd in [2] (label: 32P (alpha-32P-dATP)) amounted to 321 nM; in [3] (label: 32P (alpha-32P-dATP)) it was 256 nM; in data set [4], 122 nM.

B2: 85A TTP (ssDNA)
DNA: CCTTCGTTGTCTGCCTTCGTAGCGGATCGAATTACGCGTTAACGGCAACCGATAACGGGACCGATTGCACACCCTTCAGAATTCGCACCA
modifications: none (natural T)
B2: the Kd was 102 nM in data set [5], 67.4 nM in data set [6] and 60.2 nM in data set [7].

B3: 85A M-TTP (ssDNA)
DNA: B2 DNA
modifications: 5-alkynyl-amide T without boronic acid (M-TTP) replacing T outside the primer region
Consider B3, for which the Kd in data set [8] amounted to 138 nM.

B4: 85A B-TTP, H2O2-treated (ssDNA)
DNA: B2 DNA
modifications: B-TTP-derived T with boronic acid removed by peroxide oxidation
Consider B4, for which the Kd in data set [9] is 173 nM.

B5: 85B-2 B-TTP (ssDNA)
DNA: CCTTCGTTGTCTGCCTTCGTAGGACCGCAGACATCGACGCAGGGAAAATCCGCAAGTCCAGCCAAATGCCACCCTTCAGAATTCGCACCA
modifications: quinoline-8-boronic acid-modified T (B-TTP) replacing T outside the primer region
In data set [10] (label: 5'-biotin), B5 registered a Kd of 63.7 nM.

B6: 85B-5 dTTP (ssDNA)
DNA: B5 DNA with A48T, T67A
modifications: none (natural T)
With B6, binding in data set [10] (label: 5'-biotin) was characterised by a dissociation constant (Kd) of 1080 nM.

B7: 85B-2 dTTP (ssDNA)
DNA: B5 DNA
modifications: none (natural T)
In turn, B7 returned a Kd in data set [10] (label: 5'-biotin) of 127 nM.

B8: 85B-3 B-TTP (ssDNA)
DNA: B5 DNA with T34A, A48T, T49A
modifications: quinoline-8-boronic acid-modified T (B-TTP) replacing T outside the primer region
Molecule B8 had a Kd in data set [10] (label: 5'-biotin) of 17.6 nM.

B9: 85B-1 dTTP (ssDNA)
DNA: B5 DNA with T34A, A48T
modifications: none (natural T)
Consider B9, for which the equilibrium dissociation constant (Kd) in [10] (label: 5'-biotin) came to 507 nM.

B10: 85B-4 dTTP (ssDNA)
DNA: B5 DNA with A48T, T57A, T67A
modifications: none (natural T)
The molecule B10 registered a Kd in [10] (label: 5'-biotin) of 238 nM.

B11: 85B TTP (ssDNA)
DNA: B5 DNA with A48T
modifications: none (natural T)
Turning to B11, the Kd in data set [10] (setting [12]) came to 127 nM; in data set [2] (setting [12]) it was 130 nM; in data set [3] (setting [12]) it was 140 nM; in data set [11] it was 63.8 nM.

B12: 85B-1 B-TTP (ssDNA)
DNA: B5 DNA with T34A, A48T
modifications: quinoline-8-boronic acid-modified T (B-TTP) replacing T outside the primer region
In the case of B12, binding in [10] (label: 5'-biotin) was put at a Kd of 205 nM.

B13: 85B-5 B-TTP (ssDNA)
DNA: B5 DNA with A48T, T67A
modifications: quinoline-8-boronic acid-modified T (B-TTP) replacing T outside the primer region
In data set [10] (label: 5'-biotin), B13 registered a dissociation constant (Kd) of 329 nM.

B14: 85B-3 dTTP (ssDNA)
DNA: B5 DNA with T34A, A48T, T49A
modifications: none (natural T)
In turn, B14 displayed a Kd in data set [10] (label: 5'-biotin) of 233 nM.

B15: 85B-4 B-TTP (ssDNA)
DNA: B5 DNA with A48T, T57A, T67A
modifications: quinoline-8-boronic acid-modified T (B-TTP) replacing T outside the primer region
As for B15, in data set [10] (label: 5'-biotin), the Kd is 11.2 nM.
